This is an account of results in article doi:10.1101/2021.03.31.438001.

For this assay, the target named is Pr17 (OAD22177.1), secreted protein of Candidatus Thiomargarita nelsonii (Candidatus Thiomargarita nelsonii). Kind of assay: non-reducing SDS-PAGE.

As usually defined, the stoichiometry N is the number of molecules, sites or subunits per partner or assembly. Turning to “Pr17 (OAD22177.1), secreted protein of Candidatus Thiomargarita nelsonii (natural protein)”, the stoichiometry N worked out at 2.
